Earlier results in US20260201008A1, “SECRETIN-DERIVED GLP1R SELECTIVE AGONISTS” (GUBRA A/S, priority 2023, published 2026).
Square brackets hold non-standard residues; d marks the D form. Ends that are not written are not given here. Aib = CC(C)(N)C(=O)O

What was measured:
SCTR = SCTR (Homo sapiens, UniProt P47872); conditions: prior art value; cited from earlier work
GLP1R = GLP1R (Homo sapiens, UniProt P43220); conditions: prior art value; cited from earlier work
GLP1R, sequence (P43220 24-463, species assumed): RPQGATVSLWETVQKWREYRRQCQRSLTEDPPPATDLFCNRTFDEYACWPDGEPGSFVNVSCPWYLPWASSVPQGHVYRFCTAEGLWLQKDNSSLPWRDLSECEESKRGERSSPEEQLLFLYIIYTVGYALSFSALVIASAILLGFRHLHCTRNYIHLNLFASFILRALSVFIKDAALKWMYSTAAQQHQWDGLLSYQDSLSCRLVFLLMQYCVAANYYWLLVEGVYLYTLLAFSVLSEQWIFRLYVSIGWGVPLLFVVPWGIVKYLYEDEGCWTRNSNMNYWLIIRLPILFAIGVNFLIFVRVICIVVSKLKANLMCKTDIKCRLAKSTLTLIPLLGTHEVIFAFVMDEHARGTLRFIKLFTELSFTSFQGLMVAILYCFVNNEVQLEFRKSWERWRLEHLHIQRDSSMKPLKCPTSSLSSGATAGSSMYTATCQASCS

SCTR, sequence (P47872 23-440, species assumed): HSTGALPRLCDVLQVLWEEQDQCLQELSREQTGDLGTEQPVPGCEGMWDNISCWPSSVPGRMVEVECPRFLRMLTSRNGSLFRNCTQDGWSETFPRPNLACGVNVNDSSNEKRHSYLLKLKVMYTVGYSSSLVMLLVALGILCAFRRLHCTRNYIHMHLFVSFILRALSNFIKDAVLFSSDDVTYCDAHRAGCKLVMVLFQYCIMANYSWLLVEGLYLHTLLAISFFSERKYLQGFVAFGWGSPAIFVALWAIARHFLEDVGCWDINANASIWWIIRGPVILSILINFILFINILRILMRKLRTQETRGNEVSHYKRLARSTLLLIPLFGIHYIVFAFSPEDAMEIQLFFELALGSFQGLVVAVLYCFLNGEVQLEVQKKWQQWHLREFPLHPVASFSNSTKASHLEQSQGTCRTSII

In the case of “H-Aib-EGTFTSDLSRLLEGAALQRFIQWLV (H[Aib]EGTFTSDLSRLLEGAALQRFIQWLV-NH2; N-terminus assumed; SMILES CC[C@H](C)[C@H](NC(=O)[C@H](Cc1ccccc1)NC(=O)[C@H](CCCNC(=N)N)NC(=O)[C@H](CCC(N)=O)NC(=O)[C@H](CC(C)C)NC(=O)[C@H](C)NC(=O)[C@H](C)NC(=O)CNC(=O)[C@H](CCC(=O)O)NC(=O)[C@H](CC(C)C)NC(=O)[C@H](CC(C)C)NC(=O)[C@H](CCCNC(=N)N)NC(=O)[C@H](CO)NC(=O)[C@H](CC(C)C)NC(=O)[C@H](CC(=O)O)NC(=O)[C@H](CO)NC(=O)[C@@H](NC(=O)[C@H](Cc1ccccc1)NC(=O)[C@@H](NC(=O)CNC(=O)[C@H](CCC(=O)O)NC(=O)C(C)(C)NC(=O)[C@@H](N)Cc1c[nH]cn1)[C@@H](C)O)[C@@H](C)O)C(=O)N[C@@H](CCC(N)=O)C(=O)N[C@@H](Cc1c[nH]c2ccccc12)C(=O)N[C@@H](CC(C)C)C(=O)N[C@H](C(N)=O)C(C)C) [SEQ ID NO: 216, prior art SCTR/GLP1R co-agonist (Witteloostuijn, 2017)]”, the EC50 (SCTR) is listed as 1.3 nM and the EC50 (GLP1R) is listed as 0.12 nM.
